Target: the molecule itself
Experiment: cryo-EM structure

B1: MBP-Vpu full length (HIV-1 Vpu fused to maltose binding protein) (natural protein)
chain: MQPIPIVAIVALVVAIIIAIVVWSIVIIEYRKILRQRKIDRLIDRLIERAEDSGNESEGEISALVEMGVEMGHHAPWDVDDL
- stoichiometry N: 6

— article PMC10197565 (bioRxiv, 2023)
